What all share (assay): SPR
Background: Surface plasmon resonance follows binding to a sensor surface in real time, without labels.

In assay [1] the target is T1, human FcγRIIa H131 (human, UniProt P12318).
T1 chain: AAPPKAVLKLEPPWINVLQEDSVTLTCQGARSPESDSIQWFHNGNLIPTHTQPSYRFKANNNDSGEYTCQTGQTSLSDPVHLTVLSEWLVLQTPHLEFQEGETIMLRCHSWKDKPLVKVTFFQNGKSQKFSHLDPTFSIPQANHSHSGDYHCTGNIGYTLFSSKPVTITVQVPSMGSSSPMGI

Assay [2] addresses T2, human FcγRIIb (human, UniProt P31994).
T2 chain: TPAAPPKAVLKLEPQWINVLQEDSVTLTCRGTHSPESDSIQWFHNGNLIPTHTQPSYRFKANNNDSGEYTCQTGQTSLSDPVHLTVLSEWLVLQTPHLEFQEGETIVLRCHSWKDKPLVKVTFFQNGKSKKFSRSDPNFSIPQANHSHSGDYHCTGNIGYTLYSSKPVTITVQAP

Assay [3] addresses human FcγRIIIa V158 (human, UniProt P08637).
In assay [4] the target is T3, human FcγRIa (human, UniProt P12314).
T3 chain: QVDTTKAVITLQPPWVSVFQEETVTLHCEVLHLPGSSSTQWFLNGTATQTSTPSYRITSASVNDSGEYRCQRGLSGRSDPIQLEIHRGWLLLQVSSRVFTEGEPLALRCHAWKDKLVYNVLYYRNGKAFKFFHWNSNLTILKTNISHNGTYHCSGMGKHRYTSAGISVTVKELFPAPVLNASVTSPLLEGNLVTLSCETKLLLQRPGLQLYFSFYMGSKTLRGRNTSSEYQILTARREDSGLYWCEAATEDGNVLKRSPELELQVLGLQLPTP

The target of assay [5] is T4, human FcγRIIa R131 (human, UniProt P12318).
T4 chain: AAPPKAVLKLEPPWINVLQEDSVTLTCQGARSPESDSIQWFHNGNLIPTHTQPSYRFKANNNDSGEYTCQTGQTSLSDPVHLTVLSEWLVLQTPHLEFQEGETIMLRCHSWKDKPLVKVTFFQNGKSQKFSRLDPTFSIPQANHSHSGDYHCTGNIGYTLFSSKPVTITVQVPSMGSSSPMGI

Chain of human FcγRIIIa V158 (P08637 17-208 F176V): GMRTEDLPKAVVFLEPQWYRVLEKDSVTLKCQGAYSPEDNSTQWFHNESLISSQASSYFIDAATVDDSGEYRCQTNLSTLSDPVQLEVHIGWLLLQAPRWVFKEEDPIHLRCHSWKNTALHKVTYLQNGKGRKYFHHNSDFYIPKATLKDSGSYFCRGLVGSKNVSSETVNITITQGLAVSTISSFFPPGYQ

B1: IL6R-BP489 (antibody)
chain 1: QVQLQESGPGLVKPSETLSLTCAVSGHSISHDHAWSWVRQPPGEGLEWIGFISYSGITNYNPSLQGRVTISRDNSKNTLYLQMNSLRAEDTAVYYCARSLARTTAMDYWGEGTLVTVSSASTKGPSVFPLAPSSKSTSGGTAALGCLVKDYFPEPVTVSWNSGALTSGVHTFPAVLQSSGLYSLSSVVTVPSSSLGTQTYICNVNHKPSNTKVDKKVEPKSCDKTHTCPPCPAPDLLGDDSVFLFPPKPKDTLMISRTPEVTCVVIDVAEEDGEVKFNWYVDGVEVHNAKTKPREEQDNSTYRVVSVLTVLHQDWLNGKEYKCKVSNKALPRPIEKTISKAKGQPREPQVYTLPPSRDELTKNQVSLTCLVKGFYPSDIAVEWESNGQPENNYKTTPMVLDSDGSFFLYSKLTVDKSRWQQGNVFSCSVMHEALHNHYTQESLSLSP
chain 2: not shown
With B1, the Kd in assay [1] stood at 0.87 µM; in assay [2], 1 nM; in assay [3] it was 12 µM; in assay [4], 1.3 nM; in assay [5] it was 43 nM.

B2: IL6R-BP507 (antibody)
chain 1: QVQLQESGPGLVKPSETLSLTCAVSGHSISHDHAWSWVRQPPGEGLEWIGFISYSGITNYNPSLQGRVTISRDNSKNTLYLQMNSLRAEDTAVYYCARSLARTTAMDYWGEGTLVTVSSASTKGPSVFPLAPSSKSTSGGTAALGCLVKDYFPEPVTVSWNSGALTSGVHTFPAVLQSSGLYSLSSVVTVPSSSLGTQTYICNVNHKPSNTKVDKKVEPKSCDKTHTCPPCPAPDLLGDDSVFLFPPKPKDTLMISRTPEVTCVVIDVAEEDGPVKFNWYVDGVEVHNAKTKPREEQYNSTYRVVSVLTVLHQDWLNGKEYKCKVSNKALPRPIEKTISKAKGQPREPQVYTLPPSRDELTKNQVSLTCLVKGFYPSDIAVEWESNGQPENNYKTTPPVLDSDGSFFLYSKLTVDKSRWQQGNVFSCSVMHEALHNHYTQESLSLSP
chain 2: not shown
For the molecule B2, the Kd worked out at 2.9 nM in assay [2], 26 µM in assay [3], 2.6 nM in assay [4] and 100 nM in assay [5].

B3: IL6R-BP504 (antibody)
chain 1: QVQLQESGPGLVKPSETLSLTCAVSGHSISHDHAWSWVRQPPGEGLEWIGFISYSGITNYNPSLQGRVTISRDNSKNTLYLQMNSLRAEDTAVYYCARSLARTTAMDYWGEGTLVTVSSASTKGPSVFPLAPSSKSTSGGTAALGCLVKDYFPEPVTVSWNSGALTSGVHTFPAVLQSSGLYSLSSVVTVPSSSLGTQTYICNVNHKPSNTKVDKKVEPKSCDKTHTCPPCPAPDLLGDDSVFLFPPKPKDTLMISRTPEVTCVVIDVAEEDGPVKFNWYVDGVEVHNAKTKPREEQYNSTYRVVSVLTVLHQDWLNGKEYKCKVSNKALPAPIEKTISKAKGQPREPQVYTLPPSRDELTKNQVSLTCLVKGFYPSDIAVEWESNGQPENNYKTTPPVLDSDGSFFLYSKLTVDKSRWQQGNVFSCSVMHEALHNHYTQESLSLSP
chain 2: not shown
For B3, the Kd in assay [1] amounted to 16 µM; in assay [2] it was 24 nM; in assay [3], 34 µM; in assay [4], 1.4 nM; in assay [5], 450 nM.

B4: IL6R-BP445 (antibody)
chain 1: QVQLQESGPGLVKPSETLSLTCAVSGHSISHDHAWSWVRQPPGEGLEWIGFISYSGITNYNPSLQGRVTISRDNSKNTLYLQMNSLRAEDTAVYYCARSLARTTAMDYWGEGTLVTVSSASTKGPSVFPLAPSSKSTSGGTAALGCLVKDYFPEPVTVSWNSGALTSGVHTFPAVLQSSGLYSLSSVVTVPSSSLGTQTYICNVNHKPSNTKVDKKVEPKSCDKTHTCPPCPAPDLLGDDSVFLFPPKPKDTLMISRTPEVTCVVIDVAEEDGEVKFNWYVDGVEVHNAKTKPREEQYNSTYRVVSVLTVLHQDWLNGKEYKCKVSNKALPRPIEKTISKAKGQPREPQVYTLPPSRDELTKNQVSLTCLVKGFYPSDIAVEWESNGQPENNYKTTPPVLDSDGSFFLYSKLTVDKSRWQQGNVFSCSVMHEALHNHYTQESLSLSP
chain 2: not shown
For B4, the Kd was found to be 2.6 nM in assay [2], 24 µM in assay [3], 2 nM in assay [4] and 80 nM in assay [5].

B5: IL6R-BP506 (antibody)
chain 1: QVQLQESGPGLVKPSETLSLTCAVSGHSISHDHAWSWVRQPPGEGLEWIGFISYSGITNYNPSLQGRVTISRDNSKNTLYLQMNSLRAEDTAVYYCARSLARTTAMDYWGEGTLVTVSSASTKGPSVFPLAPSSKSTSGGTAALGCLVKDYFPEPVTVSWNSGALTSGVHTFPAVLQSSGLYSLSSVVTVPSSSLGTQTYICNVNHKPSNTKVDKKVEPKSCDKTHTCPPCPAPDLLGDDSVFLFPPKPKDTLMISRTPEVTCVVIDVAEEDGPVKFNWYVDGVEVHNAKTKPREEQDNSTYRVVSVLTVLHQDWLNGKEYKCKVSNKALPRPIEKTISKAKGQPREPQVYTLPPSRDELTKNQVSLTCLVKGFYPSDIAVEWESNGQPENNYKTTPPVLDSDGSFFLYSKLTVDKSRWQQGNVFSCSVMHEALHNHYTQESLSLSP
chain 2: not shown
Take B5: the dissociation constant (Kd) in assay [2] was 3.4 nM; in assay [3], 55 µM; in assay [4], 3.1 nM; in assay [5], 120 nM.

B6: IL6R-BP505 (antibody)
chain 1: QVQLQESGPGLVKPSETLSLTCAVSGHSISHDHAWSWVRQPPGEGLEWIGFISYSGITNYNPSLQGRVTISRDNSKNTLYLQMNSLRAEDTAVYYCARSLARTTAMDYWGEGTLVTVSSASTKGPSVFPLAPSSKSTSGGTAALGCLVKDYFPEPVTVSWNSGALTSGVHTFPAVLQSSGLYSLSSVVTVPSSSLGTQTYICNVNHKPSNTKVDKKVEPKSCDKTHTCPPCPAPDLLGDDSVFLFPPKPKDTLMISRTPEVTCVVIDVAEEDGDVKFNWYVDGVEVHNAKTKPREEQYNSTYRVVSVLTVLHQDWLNGKEYKCKVSNKALPAPIEKTISKAKGQPREPQVYTLPPSRDELTKNQVSLTCLVKGFYPSDIAVEWESNGQPENNYKTTPPVLDSDGSFFLYSKLTVDKSRWQQGNVFSCSVMHEALHNHYTQESLSLSP
chain 2: not shown
Regarding B6, the Kd came out at 11 µM in assay [1]; 21 nM in assay [2]; 38 µM in assay [3]; 1.1 nM in assay [4]; 430 nM in assay [5].

B7: IL6R-BP499 (antibody)
chain 1: QVQLQESGPGLVKPSETLSLTCAVSGHSISHDHAWSWVRQPPGEGLEWIGFISYSGITNYNPSLQGRVTISRDNSKNTLYLQMNSLRAEDTAVYYCARSLARTTAMDYWGEGTLVTVSSASTKGPSVFPLAPSSKSTSGGTAALGCLVKDYFPEPVTVSWNSGALTSGVHTFPAVLQSSGLYSLSSVVTVPSSSLGTQTYICNVNHKPSNTKVDKKVEPKSCDKTHTCPPCPAPDLLGDDSVFLFPPKPKDTLMISRTPEVTCVVIDVAEEDGEVKFNWYVDGVEVHNAKTKPREEQDNSTYRVVSVLTVLHQDWLNGKEYKCKVSNKALPRPIEKTISKAKGQPREPQVYTLPPSRDELTKNQVSLTCLVKGFYPSDIAVEWESNGQPENNYKTTPLVLDSDGSFFLYSKLTVDKSRWQQGNVFSCSVMHEALHNHYTQESLSLSP
chain 2: not shown
For B7, the Kd in assay [1] is 1 µM; in assay [2], 1.5 nM; in assay [3] it was 12 µM; in assay [4], 1.2 nM; in assay [5], 49 nM.

B8: IL6R-BP490 (antibody)
chain 1: QVQLQESGPGLVKPSETLSLTCAVSGHSISHDHAWSWVRQPPGEGLEWIGFISYSGITNYNPSLQGRVTISRDNSKNTLYLQMNSLRAEDTAVYYCARSLARTTAMDYWGEGTLVTVSSASTKGPSVFPLAPSSKSTSGGTAALGCLVKDYFPEPVTVSWNSGALTSGVHTFPAVLQSSGLYSLSSVVTVPSSSLGTQTYICNVNHKPSNTKVDKKVEPKSCDKTHTCPPCPAPELLGDDSVFLFPPKPKDTLMISRTPEVTCVVIDVAEEDGEVKFNWYVDGVEVHNAKTKPREEQYNSTYRVVSVLTVLHQDWLNGKEYKCKVSNKALPRPIEKTISKAKGQPREPQVYTLPPSRDELTKNQVSLTCLVKGFYPSDIAVEWESNGQPENNYKTTPPVLDSDGSFFLYSKLTVDKSRWQQGNVFSCSVMHEALHNHYTQESLSLSP
chain 2: not shown
As to B8, the Kd was found to be 2.4 nM in assay [2], 23 µM in assay [3], 4.5 nM in assay [4] and 110 nM in assay [5].

B9: IL6R-BP480 (antibody)
chain 1: QVQLQESGPGLVKPSETLSLTCAVSGHSISHDHAWSWVRQPPGEGLEWIGFISYSGITNYNPSLQGRVTISRDNSKNTLYLQMNSLRAEDTAVYYCARSLARTTAMDYWGEGTLVTVSSASTKGPSVFPLAPSSKSTSGGTAALGCLVKDYFPEPVTVSWNSGALTSGVHTFPAVLQSSGLYSLSSVVTVPSSSLGTQTYICNVNHKPSNTKVDKKVEPKSCDKTHTCPPCPAPDLLGDDSVFLFPPKPKDTLMISRTPEVTCVVVDLSEDDGEVKFNWYVDGVEVHNAKTKPREEQYNSTYRVVSVLTVLHQDWLNGKEYKCKVSNKALPAPIEKTISKAKGQPREPQVYTLPPSRDELTKNQVSLTCLVKGFYPSDIAVEWESNGQPENNYKTTPPVLDSDGSFFLYSKLTVDKSRWQQGNVFSCSVMHEALHNHYTQESLSLSP
chain 2: not shown
Regarding B9, the Kd was found to be 21 µM in assay [1], 200 nM in assay [2], 46 µM in assay [3] and 6300 nM in assay [5].

As a reminder, the Kd is the equilibrium constant for the complex coming apart.

Values taken from patent US11827699 (dated 2023).
